Measurements: PMC4242106 (Science translational medicine, 2010)

Type: in vivo, human
Conditions: mean of the five repeat experiments; subcutaneous; controller PK setting SLOW

Insulin lispro
Inferred lispro PK t95%, Mean: 8.9 h | Inferred lispro PK tmax, Mean: 89 min
